Measurements from paper PMC11021425, “Salmonella manipulates macrophage migration via SteC-mediated myosin light chain activation to penetrate the gut-vascular barrier” (The EMBO Journal, 2024).

Legend:
[1] = molecular target: T1, SteC FL (full-length SteC) (Salmonella enterica, UniProt D0ZIB5); experiment: Phos-tag gel kinase assay; format: biochemical; conditions: phosphate donor, 100 μM; acceptor murine Myl12a; 10 mM MgCl2/MnCl2, pH 7.5, 30 °C
T1 construct: full-length (457 aa), expressed in E. coli BL21(DE3) from pGL01, Ni-NTA, His-tag removed by PPase, Superdex 200; dimeric catalysis inferred from the kinase domain structure

Myl12a, biotinylated [2] = molecular target: Myl12a, biotinylated (UniProt Q6ZWQ9); experiment: BLI
[3] = tested on: O=c1ccn([C@@H]2O[C@H](COP(=O)(O)OP(=O)(O)OP(=O)(O)O)[C@@H](O)[C@H]2O)c(=O)[nH]1; experiment: purified protein; conditions: phosphate donor, acceptor murine Myl12a, 10 mM MnCl2, 25 mM Tris-HCl pH 7.5, 1 mM DTT, 30 °C, 30 min
[4] = tested on: Nc1nc2c(ncn2[C@@H]2O[C@H](COP(=O)(O)OP(=O)(O)OP(=O)(O)O)[C@@H](O)[C@H]2O)c(=O)[nH]1; experiment: purified protein; conditions: phosphate donor, acceptor murine Myl12a, 10 mM MnCl2, 25 mM Tris-HCl pH 7.5, 1 mM DTT, 30 °C, 30 min
[5] = molecular target: Myl12a, biotinylated (murine) (UniProt Q6ZWQ9); experiment: BLI
Myl12a, biotinylated [6] = molecular target: T2, Myl12a, biotinylated (murine, UniProt Q6ZWQ9 1-172, biotin (EZ-Link biotin, MCR = 1:1)); experiment: BLI
T2 chain: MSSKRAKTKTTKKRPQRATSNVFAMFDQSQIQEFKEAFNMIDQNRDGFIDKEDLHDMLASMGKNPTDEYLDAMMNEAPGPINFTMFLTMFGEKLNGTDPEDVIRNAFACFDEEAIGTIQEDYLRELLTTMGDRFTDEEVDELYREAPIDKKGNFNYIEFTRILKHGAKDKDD

T1 sequence (D0ZIB5 whole entry, the tested form may be a part): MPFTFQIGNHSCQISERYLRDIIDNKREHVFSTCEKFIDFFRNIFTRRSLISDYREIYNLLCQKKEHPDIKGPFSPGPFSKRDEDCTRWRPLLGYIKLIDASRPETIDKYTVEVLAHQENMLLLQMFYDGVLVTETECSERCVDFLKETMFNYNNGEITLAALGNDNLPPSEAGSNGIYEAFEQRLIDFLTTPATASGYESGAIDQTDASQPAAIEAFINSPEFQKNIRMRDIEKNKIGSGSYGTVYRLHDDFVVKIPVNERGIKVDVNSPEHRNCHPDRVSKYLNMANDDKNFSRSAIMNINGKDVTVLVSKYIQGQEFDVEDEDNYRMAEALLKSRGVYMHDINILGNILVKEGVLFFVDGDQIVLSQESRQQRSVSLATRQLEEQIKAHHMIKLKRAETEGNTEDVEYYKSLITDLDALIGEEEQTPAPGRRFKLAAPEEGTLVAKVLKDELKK

Nc1ccn([C@@H]2O[C@H](COP(=O)(O)OP(=O)(O)OP(=O)(O)O)[C@@H](O)[C@H]2O)c(=O)n1 [CTP] was tested, and the “Phos-tag gel kinase assay” value [1] was “SteC can employ all four nucleotides (ATP, CTP, UTP, and GTP) for phosphorylation”.

With Native SteC mut4 the Kd (Myl12a, biotinylated [2]) was 1.11 µM.

Native SteC mut1 showed a Kd (Myl12a, biotinylated [2]) of 1.09 µM.

Work on “SteC FL (full-length SteC) (Salmonella enterica subsp. enterica serovar Typhimurium str. 14028S)” yielded a Km [3] of 5.53 µM and a Km [4] of 5.84 µM.

“SteC full-length protein (natural protein)” gave a Kd [5] of 1.34 µM.

“SteC-C (194 aa–457 aa) (domain or fragment)” showed a Kd [5] of 23.3 µM.

B1: SteC 168 aa–364 aa fragment (domain or fragment)
chain: LPPSEAGSNGIYEAFEQRLIDFLTTPATASGYESGAIDQTDASQPAAIEAFINSPEFQKNIRMRDIEKNKIGSGSYGTVYRLHDDFVVKIPVNERGIKVDVNSPEHRNCHPDRVSKYLNMANDDKNFSRSAIMNINGKDVTVLVSKYIQGQEFDVEDEDNYRMAEALLKSRGVYMHDINILGNILVKEGVLFFVDGD
B1 was tested, and the Kd (Myl12a, biotinylated [6]) was 0.71 µM.

B2: SteC 194 aa–364 aa (domain or fragment)
chain: ATASGYESGAIDQTDASQPAAIEAFINSPEFQKNIRMRDIEKNKIGSGSYGTVYRLHDDFVVKIPVNERGIKVDVNSPEHRNCHPDRVSKYLNMANDDKNFSRSAIMNINGKDVTVLVSKYIQGQEFDVEDEDNYRMAEALLKSRGVYMHDINILGNILVKEGVLFFVDGD
B2 was tested, and the Kd (Myl12a, biotinylated [6]) was 8.83 µM.
